Assay: yeast display, Sf9 membrane polyspecificity reagent, FACS + sequencing; frameworks hold sequencing errors
Summary of the method: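 Galactose induction of a Saccharomyces cerevisiae BJ5465 synthetic nanobody display library ran 36–48 hours. The cells were then stained for 1 hour at 4 °C with 10% biotinylated, detergent-solubilized Sf9 membrane reagent, pulled down on streptavidin microbeads and FACS-sorted into low and high (top ~1%) gates on expression and reagent-binding fluorescence. Labels for polyreactivity follow the gate of origin.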

Row | Sequence | polyreactivity (PSR sort gate)
1 | QVQLVESGGVLGQAGVSLRLSCAASGRIFDGNTMGWYIQAPGQEREFVAAISGGGSTYYADSVKGRFTISRDNAKNTVYLQMNSLKPEDTAVYYCAATTGPVPLKGDYWGQGTQVTVSS | low polyreactivity
2 | QVQLVESGGGLVQAGGSLRLSCASSGGTLFQNAMGWYRQAPGKESELVATIRVSGGITYYADSVKGRFTISRDNAKNTVYFQMNSLNPEDTAVYYCAKDSADSRAVGDVMTFDYWGQGTQVTVSS | low polyreactivity
3 | QVQLVDSGGGLVQAGGSLRLSCAASGSIFYNYVMGWCRQAPGKEREMVAAISSGGGTNYADSVKGRFTISRDNAKYTVYLQMNSLKPEDTAVYYCAKASAYGLANDYDYWGQGTQVTVSS | low polyreactivity
4 | QVQHVESGGGLVQAGGSLRLSCAASGPTYKRYAMGWYRQAPGKERELVAAIRQRGGSTYYADSVKGRFTISRDNAKNTVYLQMISLKPEDTAVYYWAKRYVSNSQYEYWGQGTQVTVSS | high polyreactivity
5 | QVQLVESGGGLVQAGGSLRLSCAASGSTFAIYAMGWYRQAHGKERELVAAIRQRAGSTYYADSVKGRFTISRDNAKNTVYLQMNSLKPEDTAVYYCATATRPISRGYWGQGTQVTVSS | low polyreactivity
6 | QVQLVESGGGLVQAGGSLRLSCAASGSTILRYAMGWYRQAPGKERELVATISRSDDGTYYADYVKGRFTISRDNAKNTVYLQMNSLKPEDTAVYYCGARSWYLYYYWGLGTQVTVSS | low polyreactivity
7 | QVQLVESGGGLVQAGGSLRLSCAASGSNLDYNAMGWSRQAPGKERELVAAISTGGRTNYADSVKGRFTISRDNAKNTVYLQMNSLKPDDTAVYYCAADTTTEITDTDYDYWGQGTQVTVSS | low polyreactivity
8 | QVQLVESGGGLVQEGDSLRLSCAASGIIFLWYTLGLYRPAPGKERELVATISWGGGSTYADSVKGRFTISRDNAKNTVYLQMNSLKPEDTAVYYCAADNRYFRGQAYDYWGQGTQVTVSS | low polyreactivity
9 | QVQLVESGGGLVQAGGSLRLSCAASGSIFGDYAMGWYRQAPGKERELVATITWIGGSTYYADSVKGRFTISRDNAKNTVYLQMNSLKPEDTAVYYCAATKYVDVKYYYWGQGTQVTVSS | low polyreactivity
10 | QDQLLESGGGLGQAGGSLRLSCAASGITFGRYAMGWYRQAPGKERELVAAITWGGGSTYYADSVKGRFTISRDNAKNTVYLQMNSLKPEDTAVYYCAARSYGRWFGGYDSWGQGTQVTVSS | high polyreactivity
11 | QVQLVESGGGLVQAGGSLRLICAASGSTIVYYAMAWYRQAPGKERELVAAISRVGSTNYADSVKGRFTISRDNAKNTVYLQMNSLKPEDTAVYYCNAERSRRYSGWVNYAPLNYWGQGTQVTVSS | low polyreactivity
12 | QVQLVESGGGLVQAGGSLRLSCAASGRIFYINAMGWYRQAPGKERELVASITGSGGRTYYADSVKGRFTISRDNAKNTVYLQMNSLKPEDTAVYYCNADLYVGYLYYLYDYWGQGTQVTVSS | low polyreactivity
13 | QVQRVESGGGLVQAGGSLRLSCAASGFIFWRYAMGWYRQAPGKERELVATITSSGGTTHYADSVKGRFTISRDNAKNTVYLQMNSLKPEDTAVYYCAKALVVQYGRYTGHPYDYWGQGTQVTVSS | high polyreactivity
14 | QVQLVESGGGIVQAGGSLRLSCPASGSIFDTYAMGWYRPAPGKEREMVASWSGGSTYYADSVKGRFTISRDNAKNTVYLQMISLKPEDTAVDYCAKDYYVQPPGTRDDYWGQGSQVTVSS | low polyreactivity
15 | QVQLVESGGGLVQAGGSLRLSCAASGSIFPTYAMGWYRQAPGKERELVAAIRSGSNTYYADSVKGRFTISRDNAKNTVYLQMNSLKPEDTAVYYCNVGPQRKYPGRRTVPFGYWGQGTQVTVSS | low polyreactivity
16 | QVQLVESGGGLVQAGGSLRLSCAASGLIFSPYAMGWYRQAPGKERELVATISVSGGDTYYADSVKGRFTISRDNAKNTVYLQMNSLIPDDTAVYYCAADSFYRYYWGQGTHVTVSS | high polyreactivity
17 | QFQLVESGVGLVQAGGSLRLSCAASVRIFITNAMGWYRQAPGKERELVAAISGGSTYYGDSVKGRFTISRDNAKNTVYLQMNSLKPEDTAVYYCAVDNYYTPWYPYLGYDSWGQGTQVTVSS | low polyreactivity
18 | QVQLVESGGGLVQAGGSLRLSCAASGRTFRRNAMGWYRQAPGKERELVAAISWSGSRTYYADSVKGRFTISRDNAKKTVYLQMNSLKPEDTAVYYCAAEVWSTQGSATVQYDYLGQGTQVTVSS | high polyreactivity
19 | QVQLVESGGGLVQAGGSHRLSCAASGRIFVGYAMGWYRQAPGKERELVAGISGGGRTNYADSVKGRFTISRDNAKNTVYLQMNSLKPEDTAVYYCIAGGSVWYRSQRGWKGYYNQMDYWGQGTQVTVSS | high polyreactivity
20 | QVQLVESGGGLVQAGGSLRLSCAASGSTFRGYAMGWYRQAPGKERELVAAITRGGSTYYADSVKGRFTISRDNAKNTVYLQMNSLKPEDTAVYYFYDYWGQGTQVTVSS | low polyreactivity
21 | QVQLVESGGGLVQAGGSLRLSCAASGFTFSRNTMGWYSQAPGKERELVARISASGGSTYFADSVKGRITISRDNAKNTVYLQMTSLKQEATAVYYCAAVYRRYGGSRYDYWGQGTQVTVSS | high polyreactivity
22 | QVQLVESGGGLVQAGGSLRISCAASGRTFKSYAMGWYRQAPGKERELVAAISSSGGRTFYADSVKGRFTISRDNAKNTVYLQMNSLKPEDTAVYYCNARYCYRYGGYKPVGGYYWGQGTQVTVSS | high polyreactivity

Row | Sequence | polyreactivity (PSR sort gate)
23 | HVQLVESGGGLVQAGGSLRLSCAASGGISIDNVMGWYRQATGKERELVAAISKSGGRTFYADSVKGRFTISRDNAKNTVYLQMNSLKPEDTAVYYCAKLYISKPYWYEHEYWGQGTQVTVSS | high polyreactivity
24 | QVQLVESGGGIVQAGGSLRLSCAASGLIFRRYTMGWYRQAPGKERELVAAIRNSGSSTDYADSVKGRFTISRDNAKNTVYLQMNSLKPEDTAVYYCAKRSARKLTYDSWGQGTQVTVSS | low polyreactivity
25 | QVQLVESGGGLVQAGGSLRLSCAASGSIFRYNAMGWYRKAPGKEREFVAIISYSGVRTYYADSVKGRFTISRDNAKNTVYLQMNSLKPEDTAVYYCAADFKQKGHRTRTTYWGQGTKVTVSS | high polyreactivity
26 | QVQLVESGGGLVQAGGSLRLSCAASGYTFRFNAMGWYRQAPGKEREFVAAIDFGGAGTYYADSVKGRFTISRDNAKNTVYLQMNSLKPEDTAVYYCNARDGVTTEFDYWGQGTQVTVSS | low polyreactivity
27 | QVQHVESGGGLLQAGGSLRLSCAASVSTLSKNAMGWYRQAPGKERELVAAITRRGGSTSYADSVKGRFTISRDNAKNTVYFQMNSLKPEDTAVYYCNAVSKYDYGYWGQGTQVTVSS | high polyreactivity
28 | QVQLVESGGGLVQAGGSLGLSCAASGFTFYYYAMGWYRQAPGKERELVAIRFRGGNTYYADSVKGRFTISRDNAENTVYLQMNSLKPEDTAVYYCNADDLGSTYVDYDYWGQGTQVTVSS | low polyreactivity
29 | QVQLVESGGRIVQAGGSLRLICASSGLIFYDNMGWYRQAPGKERELVAAISSSGGSRTYADSVKGRFTISRDNAKNTVYLQMNSLKPEDTAVYYCAVDKHYYGRYGVTYDYDYWGQGTQVTVSS | low polyreactivity
30 | QVQLVESGGGLLQAGGSLRLSCAASGNTFAYNTMGWYIQAPGKERELVAAILTRGGSTYYADSVKGRFTISRDNAKKTVYLQMNSLNREDTAVYYGAADYRFHGYWSYDYWGQGTQVTVSS | low polyreactivity
31 | QVQLVESGGGLVQAGGSLRLSCAASGSIFAVYAMGRYRPAPGKERELVAASSTDYADSVKGRVTISRDNAKNTVYLQMNSLKPEDTAVYYCAKVGFGIPGGFYYWGHGTQVTVSS | low polyreactivity
32 | QVQLVESGGGLVQAGGSLRLSCAASGSTFKRNAMGWYRQAPGKERELVAAITYSGTRTYYADSVKGRFTISRDNAKNTVYLQMNSLKPEDTAVYYCAVSVPYGMDYWGQGTQVTVSS | high polyreactivity
33 | QVQLVESGGGLVQAGGSLRLTCAASGITFFQYAMGWYRQAPGKERELVAAITWSGGDTYYADSVKGRFTISRDNAKITVYLQMNSLKPEDTAVYYCAAEYVVQYYVYGYTLGYDYWGQGTQVTVSS | high polyreactivity
34 | QVQLVESGGGLVQAGGSLRLSCAASGSTIRYYAMGWYRQAPGKERELVAAISYGGGITNYADSVKGRFTISRDNAKNTVYLQMNSLKPEDTAVYCCAAYYRITRYDYWGQGTQVTVSS | high polyreactivity
35 | QVQLVESGGGLVQAGGSLRLSCAASGFTFKKYAMGWYRQAPGKERELVAAISSSGGRTTYADSVKGRFTISRDNAKNTVYLQMNSLKPEDTAVYYCNADRYTAVRAYDYWGQGTQVTVSS | low polyreactivity
36 | QVQLVESGGGIVQAGGSLRLSCAASGIIFRYYAMGWYRQAPGNERELVAVITGRGGGTYYADSVKGRFTISRDNAKNTVYLQMNSLKPEDTAVYYCAKDFTGHYPKGFDYWGQGTQLTVSS | low polyreactivity
37 | IIQAGGSLRLSCAASGRTFSGYAMGWYRPAPGKERELIADITSGGSTYYADSVKGRFTISRDNAKNTVYLQMNSLKPEDTAVYYCNKVYPVVLYEPQYDYWGQGTQVTVSS | low polyreactivity
38 | QVQLVDSGGGLVQAGGSLRLSCAASGFIFDINAMGWYRQAPGKERELVAAISYSGGSTYYADSVKGRFTISRDNAKNTVYLQMNSLKPEDTAVYYCAADCGPDSDEGDYWGQGTQVTVSS | low polyreactivity
39 | QVQLVESGGGLVQAGGSLSLSCAASGLIFITYAMGWYRQAPGKERELVATITLRGGSTYYADSVKGRFTISRDNAKNTVYLQMNSLKPEDTAVYYCAADVGYWGRSRGYPSDDYDYWGQGTQVTVSS | low polyreactivity
40 | QVQLVESGGGLVQEGGSLRLSCACSARTITGYAIGWYRQAPGQEWEVVAAIYRRGASTYYADSVKGRFTISRDNAKNTVYLEMNSLKPEDTAVDYCAAYLYGLWSVGRDYWGQGTQVTVSS | high polyreactivity
41 | QVQLVESGGGLVQAGGRLRLSCAASGISFDWYAMGWYRQAPGKERELVAAITVGASTYADSVKGRFTISRDNAKNTDYLQMNSLIPEDTAVYYCTFPVFVDYGFYTIGHDYWGQGTQVTVSS | low polyreactivity
42 | QVQLVESGGGLVQAGGSLRLSCAGSGYIFAYNTIGWYRQAPGKERELVAAISRSGGSTYYPDSVKGRFTISRDNAKNTVYLQMNSLKPEDTAVYYCAARYSGYRVGQRSFCYWGQGTQVTVSS | high polyreactivity
43 | QVQLVESGGGIVQAGGSLRLSCAASGRIFSEYAMGWYRQAPGKERELVARITSSGGSTSYADSVKGRFTISRDNAKNTVYLQMNSLNPVDTAVYYCAGDGVWRRFYYLHYYWGQGTQVTVSS | high polyreactivity

Source: the nanobody polyreactivity screen of Harvey et al. (2022)
